The values below come from patent US20260209362A1 (VIB VZW, published 2026).

The target in assay [1] is T1, mouse IL-12Rβ2 expressed on cells (mouse, UniProt P97378 24-874).
T1 construct: HEK293T cells, stably transduced (cDNA NM_008354); also called mIL-12RB2
T1 sequence: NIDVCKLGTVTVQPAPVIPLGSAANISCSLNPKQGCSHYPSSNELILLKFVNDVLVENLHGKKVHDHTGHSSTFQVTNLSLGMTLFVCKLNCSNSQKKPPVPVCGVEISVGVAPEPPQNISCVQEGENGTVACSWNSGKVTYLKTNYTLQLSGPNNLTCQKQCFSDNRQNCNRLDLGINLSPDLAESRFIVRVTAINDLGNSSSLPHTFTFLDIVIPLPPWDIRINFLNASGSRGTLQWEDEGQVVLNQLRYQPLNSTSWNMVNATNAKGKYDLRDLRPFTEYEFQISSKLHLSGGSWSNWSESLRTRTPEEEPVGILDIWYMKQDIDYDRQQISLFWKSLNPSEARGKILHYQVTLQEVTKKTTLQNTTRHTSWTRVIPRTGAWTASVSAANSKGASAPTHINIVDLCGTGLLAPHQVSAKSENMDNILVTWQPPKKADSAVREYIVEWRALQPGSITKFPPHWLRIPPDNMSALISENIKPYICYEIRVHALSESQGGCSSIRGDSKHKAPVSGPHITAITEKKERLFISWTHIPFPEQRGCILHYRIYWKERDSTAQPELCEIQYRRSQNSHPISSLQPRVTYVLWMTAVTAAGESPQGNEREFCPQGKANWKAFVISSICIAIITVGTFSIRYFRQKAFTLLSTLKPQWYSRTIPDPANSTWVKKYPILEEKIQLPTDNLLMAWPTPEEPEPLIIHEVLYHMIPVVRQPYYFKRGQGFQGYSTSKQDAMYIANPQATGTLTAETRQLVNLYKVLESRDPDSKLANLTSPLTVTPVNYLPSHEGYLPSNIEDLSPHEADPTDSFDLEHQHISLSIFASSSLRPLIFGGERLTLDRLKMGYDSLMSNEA
In words: flow cytometry, P.E. VHH on HEK293T cells stably expressing mIL-12RB2. In general terms: In flow cytometry, cells or beads pass a laser one at a time.

Assay [2] has as its target T2, biotinylated recombinant human IL-12Rβ2 (human, UniProt Q99665 24-622, random biotinylated).
T2 construct: Recombinant protein produced in-house; also called hIL-12RB2; human IL-12RB2
T2 sequence: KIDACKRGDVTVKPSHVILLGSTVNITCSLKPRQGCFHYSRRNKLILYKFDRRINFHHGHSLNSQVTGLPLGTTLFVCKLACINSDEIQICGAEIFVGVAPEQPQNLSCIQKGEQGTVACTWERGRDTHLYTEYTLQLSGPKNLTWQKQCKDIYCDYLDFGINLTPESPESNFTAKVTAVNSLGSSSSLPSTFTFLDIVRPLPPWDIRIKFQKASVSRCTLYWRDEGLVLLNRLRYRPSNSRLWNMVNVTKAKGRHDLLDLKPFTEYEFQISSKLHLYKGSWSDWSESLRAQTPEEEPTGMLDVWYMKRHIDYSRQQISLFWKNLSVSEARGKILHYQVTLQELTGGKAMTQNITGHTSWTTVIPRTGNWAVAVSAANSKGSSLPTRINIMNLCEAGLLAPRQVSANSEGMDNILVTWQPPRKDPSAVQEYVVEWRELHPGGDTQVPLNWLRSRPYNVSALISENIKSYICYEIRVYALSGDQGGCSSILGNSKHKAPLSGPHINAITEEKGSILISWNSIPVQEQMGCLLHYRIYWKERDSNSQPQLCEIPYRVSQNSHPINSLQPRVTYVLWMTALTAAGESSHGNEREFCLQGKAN
Briefly: BLI, P.E., off-rate ranking. (In general: BLI is a label-free optical method that tracks binding on a fibre tip over time.)

Assay [3] deals with T2, biotinylated recombinant human IL-12Rβ2. In words: ELISA, P.E., biotinylated antigen. In general terms: ELISA stands for enzyme-linked immunosorbent assay.
Assay [4] concerns the target T3, biotinylated recombinant mouse IL-12Rβ2 (mouse, UniProt P97378 24-637, random biotinylated).
T3 construct: Recombinant protein produced in-house; also called mIL-12RB2; mouse IL-12RB2
T3 sequence: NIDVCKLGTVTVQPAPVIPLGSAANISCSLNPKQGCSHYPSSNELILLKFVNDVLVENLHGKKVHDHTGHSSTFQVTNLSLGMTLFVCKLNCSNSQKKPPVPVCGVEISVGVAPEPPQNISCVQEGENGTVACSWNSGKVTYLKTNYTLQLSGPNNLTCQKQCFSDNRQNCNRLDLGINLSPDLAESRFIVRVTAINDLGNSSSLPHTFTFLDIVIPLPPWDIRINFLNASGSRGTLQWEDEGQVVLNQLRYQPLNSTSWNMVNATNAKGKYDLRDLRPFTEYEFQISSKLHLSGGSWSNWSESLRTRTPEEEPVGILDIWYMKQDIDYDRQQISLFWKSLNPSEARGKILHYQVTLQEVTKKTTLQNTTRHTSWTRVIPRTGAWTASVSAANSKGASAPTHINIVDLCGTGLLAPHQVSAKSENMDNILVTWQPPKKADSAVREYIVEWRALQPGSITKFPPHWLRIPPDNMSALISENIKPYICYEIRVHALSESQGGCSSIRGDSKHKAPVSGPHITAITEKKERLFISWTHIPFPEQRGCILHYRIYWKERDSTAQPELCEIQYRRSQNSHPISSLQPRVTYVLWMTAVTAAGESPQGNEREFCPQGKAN
In words: ELISA, P.E., biotinylated antigen.

B1: anti-IL-12Rβ2 VHH clone 2CAMS29 (VHH, not shown: small tags and cut ends)
VHH: QVQLQESGGGLVQAGGSLRLSCAASGLTSSTYVIGWFRQAPGKEREFVAAIMLSGGTTIYADSLKGRCTIYKDNAKNTVYLQMNSLKLEDTAVYYCASGLIYRYSDFPRSQKYNFWGQGTQVTVSS
notes: tested as periplasmic extract; also called 20534
Take B1: in assay [1], the “% cells bound” value was 14.5% and the dMFI is 99.

B2: anti-IL-12Rβ2 VHH clone 3CRHM85 (VHH, not shown: small tags and cut ends)
VHH: QVQLQESGGGLVQPGGSLRLSCAASRRTFSKHAMAWFRQAPGKEREFVAVVRWSGIITYYADSVKGRFTISRDDAKNTVYLQMDSLKPEDTAVYYCAAGDYRGNGYYVPGMYDYWGQGTQVTVSS
notes: tested as periplasmic extract; also called 21061
In the case of B2, in assay [1], the “% cells bound” value was 1.7% and the dMFI was 3.5.

B3: anti-IL-12Rβ2 VHH clone 2CAM62 (VHH, not shown: small tags and cut ends)
VHH: QVQLQESGGGLVQAEGSLRLSCVASGRTFSSYGMGWFRQAPGKEREFVTGISSAGSWIGDITSYADSVKGRFTISRDNAKNILYLQMNSLKPEDTAVYYCAAAYHGSRYYVGSTANEYTTWGQGTQVTVSS
notes: tested as periplasmic extract; also called 20493
On to B3, for which, in assay [1], the “% cells bound” value is 11.2% and the dMFI stood at 70.

B4: anti-IL-12Rβ2 VHH clone 3CRHM20 (VHH, not shown: small tags and cut ends)
VHH: QVQLQESGGGLVQAGGSLRLSCAASGRTFSKSTMGWFRQTPGKEREFVAAITWTDTEVYANSVKDRFTISRDNAKNTFYLQMHSLKLEDTAVYYCAGDRYGSSRDSVFSSPTNYPYWGQGTQVTVSS
notes: tested as periplasmic extract; also called 21055
For the molecule B4, in assay [1], the “% cells bound” value worked out at 2.83% and the dMFI stood at 7.4.

B5: anti-IL-12Rβ2 VHH clone 2CAM71 (VHH, not shown: small tags and cut ends)
VHH: QVQLQESGGGLVQAGGSLRLSCAASGRTLSNSVMGWFRQAPGKEREFVAALMWSAGSEFYTDSVKGRFSISGDGAKNTVYLQMNSLKAEDTAVYYCAAKNPPHRWSDIGKSPHYEYWGQGTQVTVSS
notes: tested as periplasmic extract
For the molecule B5, in assay [1], the “% cells bound” value came to 58.3% and the dMFI worked out at 322.

B6: anti-IL-12Rβ2 VHH clone 2CRH10 (clone ID 20362) (VHH, not shown: small tags and cut ends)
VHH: QVQLQESGGGLVQAGGSLVLSCAASGSAALIFLMSWYRQAPGKQRELVAEVSRGGSTTYADSVEGRFHISRDNAKNIVDLQMNSLKPEDTAVYYCKADQNYGDSLRSSWGRGTQVTVSS
notes: periplasmic extract
In the case of B6, in assay [2], the Response is 0.496 and the off-rate constant (koff) (usually a measure of how fast the partners let go of each other) is 0.00524 s⁻¹. The “ELISA hIL-12RB2/control” value in assay [3] amounted to 6.22. Also, the “ELISA mIL-12RB2/control” value in assay [4] came out at 0.886.

B7: anti-IL-12Rβ2 VHH clone 2CRH73 (clone ID 20369) (VHH, not shown: small tags and cut ends)
VHH: QVQLQESGGGLVQAGGSLRLTCTASGSAALIFLMSWYRQAPGKQRELVAEVSRRGSTTYADSVEGRFTISRDNAKNIVDLQMNSLKPEDTAVYYCKADQYYGDSLRSSWGRGTQVTVSS
notes: periplasmic extract
On to B7, for which, in assay [2], the Response worked out at 0.547 and the koff was found to be 0.00536 s⁻¹. Besides, in assay [3], the “ELISA hIL-12RB2/control” value worked out at 4.37. The “ELISA mIL-12RB2/control” value in assay [4] was 0.606.

B8: anti-IL-12Rβ2 VHH clone 3CAHM40 (VHH, not shown: small tags and cut ends)
VHH: QVQLQESGGGSVQAGGSLRLSCAVSGRTVSDYAMGWFRQAPGKEREFVAAMSSSETTVYPNSMKGRITISRDNAKNAVYLQLNALKPEDTAVYYCSMGPIATFQGLARQNEYHYWGQGTQVTVSS
notes: tested as periplasmic extract
For B8, in assay [1], the “% cells bound” value was determined as 1.97% and the dMFI was -1.8.

B9: anti-IL-12Rβ2 VHH clone 3CRHM12 (VHH, not shown: small tags and cut ends)
VHH: QVQLQESGGGSVQAGGSLRLSCAVSGRTVSDYAMGWFRQAPGKEREFVAAMSSSETTVYPNSVKGRITISRDNAKNAVYLQMNALKPEDTAVYYCSMGPIVTFQGLARQNEYHYWGQGTQVTVSS
notes: tested as periplasmic extract
As to B9, in assay [1], the “% cells bound” value was determined as 2.2% and the dMFI is 4.8.

B10: anti-IL-12Rβ2 VHH clone 2CAM39 (VHH, not shown: small tags and cut ends)
VHH: QVQLQESGGGLVQAGGSLRLSCAASGRTFSTYAMGWFRQAPGKEREFVAAISWSGGSTYYADSVKGRFTISRDNAKNTGYLQMNSLKPEDTAVYVCAADAEDPILYGSSWNNRRKEYDYWGQGTQVTVSS
notes: tested as periplasmic extract; also called 20482
Regarding B10, in assay [1], the “% cells bound” value was 48.7% and the dMFI worked out at 255.

B11: anti-IL-12Rβ2 VHH clone 3CAM10 (VHH, not shown: small tags and cut ends)
VHH: QVQLQESGGGLVQAGGSLRLSCAASGRTFSDYPMAWFRQAPGKEREFVAGISNGGTAYYADSVKGRFTISRDNTRNTVYLQMNRLKVEDTAVYYCAAVHLLSNLRGADPHEADYWGQGTQVTVSS
notes: tested as periplasmic extract; also called 20507
For the molecule B11, in assay [1], the “% cells bound” value worked out at 41.7% and the dMFI was determined as 212.

B12: anti-IL-12Rβ2 VHH clone 2CAM45 (VHH, not shown: small tags and cut ends)
VHH: QVQLQESGGGLVQAGGSLRLSCAASGFTFDDYAIGWFRQAPGKEREGISCISSSDYGTYYAGSVKGRFTISSDNAKNTVYLQMNSLKPEDTAVYYCAAEAISEYDCLGINYGMDYWGKGTQVTVSS
notes: tested as periplasmic extract; also called 20485
Turning to B12, in assay [1], the “% cells bound” value came out at 6.77% and the dMFI was 51.

B13: anti-IL-12Rβ2 VHH clone 2CAM88 (VHH, not shown: small tags and cut ends)
VHH: QVQLQESGGGLVPPGDSLRLSCAASGRTFSSYTMGWFRQAPGKEREFVARISQDGGSTYYADSMKGRFTVARDNAKNTVYLQMNSLKPEDTAVYYCAADMIKWGLRVGVDSFKYWGQGTQVTVSS
notes: tested as periplasmic extract
For the molecule B13, in assay [1], the “% cells bound” value was 14.8% and the dMFI stood at 93.

B14: anti-IL-12Rβ2 VHH clone 3CAM36 (VHH, not shown: small tags and cut ends)
VHH: QVQLQESGGGLVQAGESLTLSCTASGRTFSSYGMGWFRQAPGKERDFVAAISRDARYTDYADSVKGRFTISKDNAKNTAYLQMNSLNPEDTAVYFCAAAYTYSGSHYVTARSGDYNYWGQGTQVTVSS
notes: tested as periplasmic extract; also called 20511
B14: in assay [1], the “% cells bound” value was 29% and the dMFI came out at 151.

B15: anti-IL-12Rβ2 VHH clone 3CAM11 (VHH, not shown: small tags and cut ends)
VHH: QVQLQESGGGLVQAGGSLRLSCAASGRNLSTYAMGWIRQAPGKEREFVAAISWAGSTTYYADSVKGRFIISRDNAKNTLNLQMNSLKPEDTAVYYCAAPPYVTTTYYATPPSDIRDYHYWGQGTQVTVSS
notes: tested as periplasmic extract; also called 20508
Take B15: in assay [1], the “% cells bound” value came to 37.8% and the dMFI was 181.

B16: anti-IL-12Rβ2 VHH clone 2CRMS29 (VHH, not shown: small tags and cut ends)
VHH: QVQLQESGGGLVQAGGPLRLSCAASGRTFSGSAMGWFRQAPGKEREFVAAITWVGGFTYYADSVKGRFTISRDNAKNTVYLQMNNLSPEDTAVYSCAAQAYHKSGYYYPPLYDYWGQGTQVTVSS
notes: tested as periplasmic extract; also called 20521
Turning to B16, in assay [1], the “% cells bound” value was determined as 8.42% and the dMFI is 58.

B17: anti-IL-12Rβ2 VHH clone 2CAM67 (VHH, not shown: small tags and cut ends)
VHH: QVQLQESGGGEVQAGGSLRLSCVASGRTFSVYTTGWFRQAPGKEREFVAGMSGTRTYYADSVKGRFTISRDNAKNTVYLQMNSLKPDDTAVYYCAERRYGGPSLVWDEYDYRGQGTQVTVSS
notes: tested as periplasmic extract; also called 20494
For the molecule B17, in assay [1], the “% cells bound” value worked out at 13.5% and the dMFI came out at 90.
